Reference: US8178319B2, “Peptides and uses thereof” (priority 2008, dated 2012)

Assays:
[1] = system: wheat-germ agglutinin isolated B-domain (WGA-B); conditions: monovalent form of wheat-germ agglutinin (B-domain); Espinosa et al, 2000; cited from earlier work
[2] = system: human type 0 erythrocytes; test: Hemagglutination activity with human type 0 erythrocytes; format: cell-based; conditions: 2% human type 0 erythrocytes in PBS, room temperature, 1 h; for minimum lectin concentration that gave hemagglutination (molar): approximate conversion of μg/ml
Method: The hemagglutination activity of full length rAAL and Mono-F2 (SEQ ID NO: 4) was determined by serial dilutions of the lectins in PBS and mixing with an equal volume (50μL) of 2% human type 0erythrocytes suspended in PBS. After incubation at room temperature for 1h the minimum lectin concentration that gave a positive reaction was determined.

[3] = ELISA binding of biotinylated lectin to oligosaccharide glycoconjugates; conditions: for ELISA binding to non-fucosylated oligosaccharide LNT: LNT-BSA coated wells, absorbance 405 nm; for ELISA binding specificity towards fucosylated oligosaccharides: LNnF I, LNF II, LNF III, B-tri, SLex, SLea conjugates, absorbance 405 nm (FIG. 7)
Method: Purified Mono-F2 (SEQ ID NO: 4) and full length rAAL were biotinylated using IMMUNOPROBE™ Biotinylation Kit (Sigma-Aldrich, Stockholm, Sweden) according to the manufacturer's instruction. The biotin/protein ratio was determined to 1.1 biotin moieties per protein molecule for both Mono-F2 (SEQ ID NO: 4) and rAAL. Microtiter plates (Nunc MaxiSorp™ eBioscience, San Diego, CA) were coated with 0.2 μg of LNnF I-BSA, LNF II-BSA, LNF III-HSA, LNT-BSA; 0.1 μg of B-tri-HSA, SLex-HSA and SLea-HSA in 100 μL coating buffer (15 mM Na2CO3, 35 mM NaHCO3, 0.02% NaN3, pH 9.6). Then 100 μL of biotinylated Mono-F2 (SEQ ID NO: 4) or full length rAAL was added to the wells. After addition of ExtrAvidin (E-2632 Sigma-Aldrich, Stockholm, Sweden) and phosphatase substrate (Sigma 104®, Sigma-Aldrich, Stockholm, Sweden) the amount of Mono-F2 (SEQ ID NO: 4) or full length AAL binding to each well were measured at 405 nm using a VERSAmax microplate reader (Molecular Devices Corporation, Sunnyvale, CA).
To analyze whether the His-tag on Mono-F2 (SEQ ID NO: 4) affected the fucose binding the ELISA analysis was also performed using Mono-F2 (SEQ ID NO: 4) pre-treated with thrombin protease to remove the His-tag. Biotin labelled Mono-F2 (SEQ ID NO: 4) (50μg) in PBS was incubated with 2 units of thrombin protease (Amersham Biosciences, Uppsala, Sweden) for 2 hours at room temperature.

[4] = Affinity chromatography on fucose-agarose column; format: binding
Method: Purified Mono-F2 (SEQ ID NO: 4) was analyzed on a 1 mL fucose-agarose column (Sigma-Aldrich, Stockholm, Sweden). The column was equilibrated with 20mL PBS. Mono-F2 (SEQ ID NO: 4) was added and the column was incubated for 20 minutes at 4° C. with gentle rocking. After incubation the column was washed with PBS until the absorbance at 280 nm had reached zero. Elution was performed with 4 mL of 0.15 M L-fucose in PBS, 4 mL of 1 M L-fucose in PBS, and lastly with glycine buffer pH 2.5. Fractions (1 mL) were collected with monitoring of absorbance at 280 nm. The fractions were further analysed by SDS-PAGE.

[5] = Oligosaccharide affinity chromatography on silica column with immobilized Mono-F2; format: binding, human
Method: FIG. 5 - chromatograms of some fucosylated human milk oligosaccharides (LNnF I, LNF II and LNF III) and a non-fucosylated control (LNT) on a silica column with immobilized Mono-F2 (SEQ ID NO: 4).
Mono-F2 (SEQ ID NO: 4) was immobilized on silica particles (5μM, 300 Å) and packed in an affinity column (50×0.32 mm) and chromatography of a number of oligosaccharides were examined. […] Elutions of oligosaccharides were detected by UV absorbance at 210 nm.

Molecule | minimum lectin concentration that gave hemagglutination [2] | minimum lectin concentration that gave hemagglutination (molar) [2] | ELISA binding to non-fucosylated oligosaccharide LNT [3] | ELISA binding specificity towards fucosylated oligosaccharides [3] | other results
CC(=O)N[C@H]1[C@H](O[C@H]2[C@H](O)[C@@H](NC(C)=O)C(O)O[C@@H]2CO)O[C@H](CO)[C@@H](O[C@@H]2O[C@H](CO)[C@@H](O)[C@H](O)[C@H]2NC(C)=O)[C@@H]1O (stereo partly drawn) [chitotriose, N,N′, N″-triacetylchitotriose] |  |  |  |  | binding affinity [1]: millimolar range
rAAL: Recombinant full length His-tagged Aleuria aurantia lectin (protein, UniProt P18891 2-313, looked up, His-tag, Recombinant full length His-tagged Aleuria aurantia lectin) Fucose-specific lectin: PTEFLYTSKIAAISWAATGGRQQRVYFQDLNGKIREAQRGGDNPWTGGSSQNVIGEAKLFSPLAAVTWKSAQGIQIRVYCVNKDNILSEFVYDGSKWITGQLGSVGVKVGSNSKLAALQWGGSESAPPNIRVYYQKSNGSGSSIHEYVWSGKWTAGASFGSTVPGTGIGATAIGPGRLRIYYQATDNKIREHCWDSNSWYVGGFSASASAGVSIAAISWGSTPNIRVYWQKGREELYEAAYGGSWNTPGQIKDASRPTPSLPDTFIAANSSGNIDISVFFQASGVSLQQWQWISGKGWSIGAVVPTGTPAGW | 2.5 µg/mL | ~0.071 µM | only low background binding | bound to all fucosylated oligosaccharides | 
Mono-F2: Recombinant His-tagged monovalent fucose-binding fragment of Aleuria aurantia lectin, site 2 (AAL aa 51-161) (protein, listed as Aleuria aurantia, His tag) SQNVIGEAKLFSPLAAVTWKSAQGIQIRVYCVNKDNILSEFVYDGSKWITGQLGSVGVKVGSNSKLAALQWGGSESAPPNIRVYYQKSNGSGSSIHEYVWSGKWTAGASFG | > 200 µg/mL | > 14 µM | only low background binding | binding only non-sialylated oligosaccharide structures with α1-2 or α1-4 linked fucose | elution from fucose-agarose column with 0.15 M L-fucose ([4]; 4 mL of 0.15 M L-fucose in PBS): could not be eluted; elution from fucose-agarose column with 1 M L-fucose ([4]; 4 mL of 1 M L-fucose in PBS): Very little was eluted; binding to immobilized fucose (conclusion; low-pH buffer needed for full elution) ([4]; glycine buffer pH 2.5 needed for full elution): high affinity binding to fucose; retention of non-fucosylated LNT on immobilized Mono-F2 column ([5]; LNT (non fucosylated) control): not bound to the column; retention of fucosylated oligosaccharides LNF I, LNF II and LNF III on immobilized Mono-F2 column ([5]; increasing retention times LNF I, LNF II, LNF III, UV 210 nm): retarded on the column
Mono-F2-T: Mono-F2 pre-treated with thrombin protease to remove the His-tag (protein, listed as Aleuria aurantia, His-tag removed by thrombin) SQNVIGEAKLFSPLAAVTWKSAQGIQIRVYCVNKDNILSEFVYDGSKWITGQLGSVGVKVGSNSKLAALQWGGSESAPPNIRVYYQKSNGSGSSIHEYVWSGKWTAGASFG |  |  |  |  | ELISA binding compared with non-treated Mono-F2 ([3]; LNnF I-, LNF II- and LNF III-BSA conjugates, His-tag removed with thrombin (FIG. 8)): identical binding
